The source of these data is the supplement of paper PMC9170038.

For series [1], the system named is MS2 coat protein. As to the kind of experiment: apparent KD of MS2 coat protein; designed switch direction (-1 OFF switch, 1 ON switch): 1; higher = weaker reporter binding. Summed up:
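Designed RNA switches with common flanks were transcribed on Illumina chips by stalled E. coli RNA polymerase and titrated with SNAP-549-labelled MS2 coat protein, from 0.7 or 1.5 nM doubling to 3 µM, in Tris-HCl pH 7.5 buffer with KCl, MgCl2, BSA, DTT, tRNA and Tween-20. Steps lasted 0.8–1.5 h (lowest) to 10–20 min (highest). Titrations ran without input, with 200 uM small-molecule ligand, or with an oligonucleotide input. Normalised cluster fluorescence was curve-fitted, and apparent KD is the per-design median over clusters.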

The test system of series [2] is MS2 coat protein. As to the kind of experiment: apparent KD of MS2 coat protein; higher = weaker reporter binding. The conditions noted are these: Eterna round: R107. Summed up:
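With or without constant ligand, designed RNA switches in 100 mM Tris-HCl pH 7.5, 80 mM KCl and 4 mM MgCl2 were titrated with SNAP-549-labelled MS2 coat protein. Concentrations went up in twofold steps from 0.7 or 1.5 nM to 3 µM. The switches had been transcribed on-chip from Illumina sequencing clusters, and apparent KD is the per-design median of normalised cluster binding-curve fits.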

The mark [3] stands for this setting: Eterna round: R95, input ligand: FMN 200 uM.
[4] abbreviates: Eterna round: R95, input ligand: microRNA oligo, concentration not stated.
Setting [5] is: Eterna round: R95, input ligand: none.
The mark [6] stands for this setting: input ligand: microRNA oligo, concentration not stated.
Setting [7] is: input ligand: theophylline 20 uM.
[8] abbreviates: input ligand: theophylline 2 mM.
[9] abbreviates: input ligand: tryptophan 2.4 mM.

On to “AUAAAACAUGAGGAUCACCCAUGUUAACAAAGUCGAGGAUAUGGGCAAAUAAAAUAAGAACCAGAAGGCGAAUAAU [salish99_ss1_r3_045] (puzzle: Same State 1)”, for which the “apparent KD of MS2 coat protein” value in series [1] (setting [3]) amounted to 16.8 nM; in series [1] (setting [4]), 27.9 nM; in series [1] (setting [5]), 27.7 nM.
On the same counts, the results for “GCAGUACUAGCAGAGGAUAUGUCGAUAACGACAUGAGGAUCACCCAUGUGUACGGAAGUACUCAGACAGAAGGCUGAGUACUGCU [Same State 2 - Hyphema v.2] (puzzle: Same State 2)” are 15.2 nM, 30.2 nM and 41.8 nM.
For the sequence “GGUAUCGGCACAGGAUAUGCUAUCCUUUGGGUAGCAGAAGGGUGAACAUGAGGAUCACCCAUGUAGGUGCCAGGGCGUGAGCCC [JL SSNG1 1.80] (Eterna round: R96, puzzle: Same State NG 1)”, the “apparent KD of MS2 coat protein” value stood at 213 nM in series [1] (input ligand: FMN 200 uM), 56.4 nM in series [1] (setting [6]) and 149 nM in series [1] (input ligand: none).
Turning to “AGUCCAGCCUGAGCUGGACAAAAGCAUGUACAUGAGGAUCACCCAUGUCGUGUACAAGCUUUUUGCUCGUCUUAAUA [Zipper 49 - 4] (puzzle: Sensor for hsa-mir-208a)”, the “apparent KD of MS2 coat protein” value in series [1] (setting [3]) was 285 nM; in series [1] (setting [4]), 13.5 nM; in series [1] (setting [5]), 311 nM.
As to “GUGCAACCGUGUGAGGAUAUCGGUGAAUAGACAUGAGGAUCACCCAUGUCCGAAGCUCGGUUCUCCGAGAAGGCGCACAGUUGCA [Same State 2 - Mod of Erisin v.5] (puzzle: Same State 2)”, the “apparent KD of MS2 coat protein” value stood at 42.8 nM in series [1] (setting [3]), 41.5 nM in series [1] (setting [4]) and 52.4 nM in series [1] (setting [5]).
Take “UAGUUGGUGGUAGGAUAUGUAGGAUAUGGCGAGAGCUAAGCUUGGAAGUCACUUCAGCCAGAAGGACAGAAGGACCAGUAGCUU [pwkr ssNG2 2FMN + F9.10] (Eterna round: R96, puzzle: Same State NG 2)”: the “apparent KD of MS2 coat protein” value in series [1] (input ligand: FMN 200 uM) is 105 nM; in series [1] (setting [6]), 24.2 nM; in series [1] (input ligand: none), 79.1 nM.
For the sequence “AUGAAGAAUUAAGGAUAUUGAUUACAUAUGUUUAACAUGAGGAUCACCCAUGUGGGUUGCGGUAUCGAGAAGGUAAAUUAAAAG [Mat - same State NG 2 - JL mod - D88] (Eterna round: R96, puzzle: Same State NG 2)”, the “apparent KD of MS2 coat protein” value in series [1] (setting [6]) stood at 156 nM.
On the same count and under the same terms, the same measure for “UGUUGUAUUACAGGAUAUCUAUUAGCUUUAUUUAGAGAAGGGUAUUCACAUGAGGAUCACCCAUGUAUAUACGAGGAAGUUGUG [JMF's solution 88] (Eterna round: R96, puzzle: Same State NG 1)”: 33.6 nM.
For “CUGUACAUCUCGGCCGCCACUGCAACAUGUAGAGAUGUAUAUGUACAUGAGGAUCACCCAUGUGGCAGGACCGGGAGGUGUGCAG [SSTryp B #27]”, the “apparent KD of MS2 coat protein” value turned out to be 167 nM in series [2] (input ligand: arginine 13.2 mM); 147 nM in series [2] (input ligand: none); 128 nM in series [2] (setting [7]); 206 nM in series [2] (setting [8]); 111 nM in series [2] (setting [9]).
In the case of “UCGUUUUAGUCGGCCGCCACUGGUCUCAUGUUCAACAUGAGGAUCACCCAUGUAUCUUAUUUUAACAGGACCGGGACGUAAUAGA [#16 Exclusion Tryptophan B]”, the “apparent KD of MS2 coat protein” value was found to be 90.8 nM in series [2] (input ligand: arginine 13.2 mM), 88.2 nM in series [2] (setting [7]) and 140 nM in series [2] (setting [8]).
Regarding “GGACUAACCAGAAGGAGCGACACGCAGAAACUGCUAUUUCCUCCGCACGAGGAUCACCCGUGUCAGGUAGGUCGCUGGUUAGUCG [ArgBX 28]”, the “apparent KD of MS2 coat protein” value in series [2] (input ligand: arginine 13.2 mM) was 22.1 nM; in series [2] (input ligand: none) it was 19.5 nM; in series [2] (setting [7]), 25.4 nM; in series [2] (setting [8]), 20.3 nM; in series [2] (setting [9]), 21.4 nM.
Taken in the same sequence, the figures for “CUCCCGUGAGCGGCCGCCACUGGAGGCCUCGCGCGACAUGAGGAUCACCCAUGUUGGCCCGGCCUCAGGACCGGGUUCGCGCGAG [Same State - Tryptophan B Attempt #5 (HarryS)]” were 7.94 nM, 9.67 nM, 12.4 nM, 9.89 nM and 7.41 nM.
For the sequence “AGCUCGCAUCCUCUAGCGUCAAAGACGCGUCGAGGACCGGUACGGCCGCCACUCGACUUGAGGAUCACCCAGGUCAAAGCGAGCA [TrypAX 13 #SwitchBubble #AlternativeMS2 #MS2Late #CuTurnoff]”, the “apparent KD of MS2 coat protein” value in series [2] (input ligand: arginine 13.2 mM) came to 148 nM; in series [2] (input ligand: none), 545 nM; in series [2] (setting [7]), 488 nM; in series [2] (setting [8]), 631 nM; in series [2] (setting [9]), 138 nM.
Turning to “AAACGUUGCUGCGAUACCAGACAUGAGGAUCACCCAUGUACCAAGGUAACCGAAAGGCAUGUCCCUUGGCAGCGCAGCAACGAAA [MAT - Exclusion Theophlline B - Mod of Eli - D17]”, the “apparent KD of MS2 coat protein” value was determined as 14.8 nM in series [2] (input ligand: arginine 13.2 mM); 11.1 nM in series [2] (input ligand: none); 18.9 nM in series [2] (setting [7]); 262 nM in series [2] (setting [8]); 13.5 nM in series [2] (setting [9]).
On the same counts, the results for “AACAUGAGGAUCACCCAUGUCCUCGUGAUUCGAGGACCGGUACGGCCGCCACUCGGUCCUCGCGAGGUGGAGUCAAAGACUCCAA [Omei Trp A SS A v3]” are 72.3 nM, 384 nM, 487 nM, 425 nM and 327 nM.
Regarding “AAUGGUGGAACGAAGUACAGGAGUACAAAUCGAGGACCGGUACGGCCGCCACUCGCGAAAGAACAUGAGGAUCACCCAUGUAAAA [theeternabot_exclusion_MS2_Trp_A_34]”, the “apparent KD of MS2 coat protein” value in series [2] (input ligand: arginine 13.2 mM) was found to be 12.1 nM; in series [2] (input ligand: none) it was 8.09 nM; in series [2] (setting [7]), 21.8 nM; in series [2] (setting [8]) it was 177 nM; in series [2] (setting [9]) it was 11.1 nM.
As for “AAAUAAACAUCGGCCGCCACUUACUCAUGAGGUAACAACAUGAGGAUCACCCAUGUUUGAGGAUCAAGGACCGGGAUGUAAUAAA [AstrosSSTryB#1]”, the “apparent KD of MS2 coat protein” value worked out at 23.1 nM in series [2] (input ligand: arginine 13.2 mM); 27.3 nM in series [2] (input ligand: none); 33.6 nM in series [2] (setting [7]); 32.9 nM in series [2] (setting [8]); 19.6 nM in series [2] (setting [9]).
On the same counts, the results for “UAAAUAAUCUGGGUGUAGGUAAUAACAGAUACCAGCCAGAUAACUGGCCCUUGGCAGCUGAAAACAUGAGGAUCACCCAUGUAAA [Mat - Same State Theophlline A - Mod of Eli - D19]” are 58.3 nM, 80.6 nM, 129 nM, 84.6 nM and 57.4 nM.
For the sequence “ACCAACCACACCCUUCACUGUUUUCGCCGCCGAGGACCGGUACGGCCGCCACUCGUACAAAGACAUGAGGAUCACCCAUGUGCCU [theeternabot_exclusion_MS2_Trp_A_7]”, the “apparent KD of MS2 coat protein” value was found to be 14.8 nM in series [2] (input ligand: arginine 13.2 mM), 20.3 nM in series [2] (setting [7]) and 20.4 nM in series [2] (setting [8]).
Regarding “AGCCACUCGAGUGAUCCUCACGAGUGGCUACGAGGACCGGUACGGCCGCCACUCGAAUUAACAUGAGGAUCACCCAUGUAAUCUC [Brourdmod06]”, the “apparent KD of MS2 coat protein” value in series [2] (input ligand: arginine 13.2 mM) amounted to 38.7 nM; in series [2] (setting [7]) it was 238 nM; in series [2] (setting [8]), 344 nM.
“AGAUCUUUCGAAAGAAGGAUCUUGUCUGAUACCAGAGACGAAAGUCUCCCUUGGCAGCAGUGCCAACAUGAGGAUCACCCAUGUA [Theophylline A 12]”: the “apparent KD of MS2 coat protein” value in series [2] (input ligand: arginine 13.2 mM) was 22 nM; in series [2] (setting [7]), 24.7 nM; in series [2] (setting [9]), 21.3 nM.
On the same counts, the results for “AUAGUCUAGAGUGAUACCAGACAACAUGAGGAUCACCCAUGUAGCAUAUGGUUAUCAUGAGUCCCUUGGCAGCACGCAUGUAUAG [JR_ExcTheophyB_Sub012]” are 13.4 nM, 19.9 nM and 13.2 nM.
Taken in the same sequence, the figures for “CAACAAGUAACUGAUACCAGUGUACUGACAUGAGGAUCACCCAUGUUGGGUUUUGUUGUACACCCUUGGCAGCAGAAUCUUGUUG [AstrosExyTheB#21]” were 44.7 nM, 67.7 nM and 50 nM.
“AGAGUCUAGUCGGCCGCCACUCAUGUCCAAUGGACAUGAGGAUCACCCAUGUACCGAAGGUACAUGAGGACCGGGACUGGACUCA [Omei Tryp B SS C v6]”: the “apparent KD of MS2 coat protein” value in series [2] (input ligand: arginine 13.2 mM) came to 43.6 nM; in series [2] (setting [7]) it was 496 nM; in series [2] (setting [8]), 330 nM.
